{"source": "patent US20020127229A1", "about": "“Tumour therapy” (priority 1996, published 2002)", "molecules": {"B1": {"name": "Native ^125I-CPG2: bacterial enzyme carboxypeptidase G2, not conjugated to PEG (protein, UniProt P06621 23-415, looked up)", "Carboxypeptidase G2": "ALAQKRDNVLFQAATDEQPAVIKTLEKLVNIETGTGDAEGIAAAGNFLEAELKNLGFTVTRSKSAGLVVGDNIVGKIKGRGGKNLLLMSHMDTVYLKGILAKAPFRVEGDKAYGPGIADDKGGNAVILHTLKLLKEYGVRDYGTITVLFNTDEEKGSFGSRDLIQEEAKLADYVLSFEPTSAGDEKLSLGTSGIAYVQVNITGKASHAGAAPELGVNALVEASDLVLRTMNIDDKAKNLRFNWTIAKAGNVSNIIPASATLNADVRYARNEDFDAAMKTLEERAQQKKLPEADVKVIVTRGRPAFNAGEGGKKLVDKAVAYYKEAGGTLGVEERTGGGTDAAYAALSGKPVIESLGLPGFGYHSDKAEYVDISAIPRRLYMAARLIMDLGAGK", "modifications": "125I label", "notes": "bacterial enzyme carboxypeptidase G2, not conjugated to PEG"}, "B2": {"name": "PEG (5000) 32-CPG2: CPG2 conjugated to PEG 5000 mwt, average 32 PEG molecules per molecule of CPG2 (conjugate, UniProt P06621 23-415, looked up)", "Carboxypeptidase G2": "B1 Carboxypeptidase G2", "modifications": "PEG 5000, 32 per molecule", "notes": "CPG2 conjugated to PEG 5000 mwt, average 32 PEG molecules per molecule of CPG2"}, "B3": {"name": "PEG 2000: CPG2 conjugated to PEG 2000 mwt (average 22-27 PEG molecules per CPG2) (conjugate, UniProt P06621 23-415, looked up)", "Carboxypeptidase G2": "B1 Carboxypeptidase G2", "modifications": "PEG 2000, 22-27 per molecule"}, "B4": {"name": "PEG 5000 at 22 PEGs per CPG2: CPG2 conjugated to PEG 5000, 22 PEG molecules per CPG2 (conjugate, UniProt P06621 23-415, looked up)", "Carboxypeptidase G2": "B1 Carboxypeptidase G2", "modifications": "PEG 5000, 22 per molecule", "notes": "CPG2 conjugated to PEG 5000, 22 PEG molecules per CPG2"}}, "key": {"target cells in vitro": {"system": "target cells in vitro", "conditions": "cited from earlier work"}, "[1]": {"system": "human colon carcinoma LS174T", "set-up": "species or system nude mice", "conditions": "mouse, in vivo", "description": "The following figures (FIGS. 2 to 6) illustrate the biodistribution of carboxypeptidase G2 conjugated to PEG in nude mice bearing the human colon carcinoma LS174T. The mice were injected intravenously with the specified amount of enzyme (measured as enzyme units) using 4 mice per time point. Mice were killed at 24 h, 48 h, and 72 h after injection, in some cases at 96 h and 120 h. CPG2 activity in plasma was measured by spectrophotometric assay using methotrexate as the substrate. CPG2 activity in tumour and other tissues was measured by HPLC using methotrexate as the substrate.\nThe biodistribution of native CPG2 and PEG-CPG2 at 72 hours is illustrated in FIGS. 7 and 8.\nFIG. 4(a). Biodistribution of CPG2 activity following use of galactosylated SB43 (clearing antibody). Mice were given CPG2 conjugated to PEG 2000 mwt, average 22 mols PEG per molecule of CPG2, at time 0. Galactosylated monoclonal antibody SB43 was given 19, 20 and 21 hrs later by IP route. The mice were killed at 24 h post CPG2.\nIn relation to FIG. 4(a) and 4(b) these show good tumour to normal tissue concentration and ratios following use of the clearing antibody. However, it is not possible to administer the clearing antibody as efficiently in the mouse as in the human patient.\nI have investigated PEG (mol wt 5000) in the range of 13-32 PEG molecules per enzyme molecule (CPG2, mol wt 83,000); the higher the molecular weight the higher and more prolonged is the plasma concentration of enzyme achieved. The higher the plasma concentration the higher tumour concentration in the tumour model LS174T. Since one objective is to get as much enzyme into the tumour as possible and prolong the period for which an effective concentration of enzyme is sustained in the tumour the conjugate giving the highest concentration of enzyme in blood is preferred. However, the choice of conjugate also has to take account of the need to clear enzyme from blood after the desired concentration of enzyme has been achieved in the tumour(s) and before prodrug is given. A conjugate which is difficult to clear from blood would be disadvantageous so that compromise between these two requirements may be necessary.\nThus, PEG with a molecular weight of 2000 in the range 20 to 40 PEG molecules per molecule of enzyme is preferred, giving a total molecular weight in the range of around 130-160 kDal, but associated water of hydration gives a molecular size equivalent to molecules of much greater weight."}, "LS174T tumours": {"system": "LS174T tumours", "experiment": "Tumour growth delay in the LS174T tumour model (MDEPT therapy)", "assay_type": "in vivo, nude mice", "conditions": "with CPG2 clearance antibody SB43 and the phenol prodrug (25 mg/kg i.p., 3 doses)", "description": "FIG. 6. Nude mice bearing LS174T tumours were given 25 enzyme units of CPG2-PEG (22 PEG molecules, PEG 5000) followed at 20 hr, 23 h, 26 h by galactosylated SB43. At 48 h post CPG2-PEG they received 25 mg/kg of a phenol prodrug (4-[N,N-bis(2-chloroethyl)amino]-phenoxycarbonyl-L-glutamic acid) intraperiotoneally, repeated to a total of 3 doses at 1 hr intervals.\nFIG. 6. Nude mice bearing LS174T tumours were given 25 enzyme units of CPG2-PEG (22 PEG molecules, PEG 5000) followed at 20 hr, 23 h, 26 h by galactosylated SB43. At 48 h post CPG2-PEG they received 25 mg/kg of a phenol prodrug intraperiotoneally, repeated to a total of 3 doses at 1 hr intervals."}}, "data": [{"molecule": "CC(NC(=O)C(CCC(=O)O)NC(=O)c1ccc(N(C)Cc2cnc3nc(N)nc(N)c3n2)cc1)C(=O)O", "note": "(stereo not drawn) [Alanine methotrexate]", "values": [{"measurement": "toxicity relative to native methotrexate (fold less)", "setting": "target cells in vitro", "value": "50-100 fold"}]}, {"molecule": "B1", "values": [{"measurement": "clearance from blood, tumour and normal tissues", "setting": "[1]", "value": "clears rapidly"}]}, {"molecule": "B2", "values": [{"measurement": "plasma concentration of enzyme", "setting": "[1]", "value": "high and persistent"}]}, {"molecule": "B3", "values": [{"measurement": "plasma levels compared with PEG 5000", "setting": "[1]", "value": "lower"}, {"measurement": "tumour concentrations of enzyme compared with PEG 5000", "setting": "[1]", "value": "similar"}]}, {"molecule": "B4", "values": [{"measurement": "tumour growth delay compared to untreated controls", "setting": "LS174T tumours", "value": "significant growth delay"}]}]}
